Here are results for one substance from patent publication US20240417462A1.

The experiment deals with TIGIT on PHA-activated human peripheral blood mononuclear cells (PBMC) (human) (UniProt Q495A1). Nature of the experiment: cell-based or functional assay.
TIGIT on PHA-activated human peripheral blood mononuclear cells (PBMC) (human), sequence (Q495A1 22-244): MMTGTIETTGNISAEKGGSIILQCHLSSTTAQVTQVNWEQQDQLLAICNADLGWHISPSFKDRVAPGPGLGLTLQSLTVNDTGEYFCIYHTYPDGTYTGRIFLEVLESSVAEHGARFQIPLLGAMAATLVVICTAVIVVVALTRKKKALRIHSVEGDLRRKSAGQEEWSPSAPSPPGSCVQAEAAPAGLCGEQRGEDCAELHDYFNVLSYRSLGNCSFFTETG

In turn, Tiragolumab (antibody) showed an IFNγ release, increase over no antibody of 16%.
